This is an account of results in patent US20260374857 (published 2026).

For assay [1], the target named is T1, GnRH Bio-peptide 1 (not fully specified).
T1 chain: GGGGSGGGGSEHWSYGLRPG
In words: ELISA. On the technique in general: ELISA stands for enzyme-linked immunosorbent assay.

In assay [2] the target is T1, GnRH Bio-peptide 1. Description: ELISA.
The target of assay [3] is T2, GnRH Bio-peptide 2 (not fully specified).
T2 chain: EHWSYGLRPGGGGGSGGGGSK
In words: ELISA.

For assay [4], the target named is T1, GnRH Bio-peptide 1. In words: SPR. On the technique in general: SPR reads the build-up and loss of mass on a sensor chip optically.
For assay [5], the target named is T1, GnRH Bio-peptide 1. In words: ELISA.
Assay [6] concerns the target T1, GnRH Bio-peptide 1. In words: ELISA.
For assay [7], the target named is T2, GnRH Bio-peptide 2. In words: SPR.
The target in assay [8] is T2, GnRH Bio-peptide 2. Description: ELISA.
In assay [9] the target is T1, GnRH Bio-peptide 1. Description: ELISA.
The target in assay [10] is T1, GnRH Bio-peptide 1. Description: ELISA.
Assay [11] concerns the target T1, GnRH Bio-peptide 1. In words: ELISA.

Positions count from the first letter of the chain named. Like-named read-outs stand apart in the source and are kept apart here. A value given as a limit tells only on which side of the number the result lay.

B1: Clone 1 (pGnRH-001) (antibody, V domains shown)
VH: QVQLVESGGGLVQAGGSVRLSCTASGRTFNNYVLGWFRQTPGKEREFVAAIRGTGSTTHADSVKGRFTISRDNAKNTVYLQMNSLKPEDTAVYYCAADDAYYPGNLRPQYWGQGTQVTVSS
For B1, the concentration giving a half-maximal response (EC50) (usually the concentration needed to bring the measured effect to its halfway point) with GnRH Bio-peptide 1 [1] turned out to be 14 nM; with GnRH Bio-peptide 1 [2] it was 4 nM; with GnRH Bio-peptide 2 [3], 0.3 nM; with GnRH Bio-peptide 1 [5] it was 1.27 nM; with GnRH Bio-peptide 1 [6], 0.41 nM. Further, the results for the Kd with GnRH Bio-peptide 1 [4] and with GnRH Bio-peptide 2 [7] were 13.5 nM and 7.1 nM, respectively.

B2: Clone 1 Variant 2 (antibody, V domains shown)
VH: B1 VH with D99R, Q109H
Regarding B2, in the assay with GnRH Bio-peptide 1 [5], the EC50 worked out at 0.5 nM.

B3: Clone 1 Ala scanning 9 (antibody, V domains shown)
VH: B1 VH with R107A
As to B3, the response with GnRH Bio-peptide 1 [2] was half-maximal at 4.2 nM (EC50).

B4: Clone 1 Variant 4 (antibody, V domains shown)
VH: B1 VH with D99E, A100T, Q109H
In the case of B4, the EC50 in the assay with GnRH Bio-peptide 1 [5] turned out to be 0.96 nM.

B5: Clone 1 Ala scanning 7 (antibody, V domains shown)
VH: B1 VH with N105A
On to B5, for which the EC50 in the assay with GnRH Bio-peptide 1 [2] was found to be 4.3 nM.

B6: Clone 1 Ala scanning 6 (antibody, V domains shown)
VH: B1 VH with G104A
Turning to B6, in the assay with GnRH Bio-peptide 1 [2], the response was half-maximal at 26.2 nM (EC50).

B7: Clone 1 Ala scanning 4 (antibody, V domains shown)
VH: B1 VH with Y102A
Take B7: the EC50 with GnRH Bio-peptide 1 [2] turned out to be 152 nM.

B8: Clone 1 Ala scanning 10 (antibody, V domains shown)
VH: B1 VH with P108A
In the assay with GnRH Bio-peptide 1 [2], B8 displayed an EC50 of 65.7 nM.

B9: Clone 1 Ala scanning 5 (antibody, V domains shown)
VH: B1 VH with P103A
The molecule B9 had an EC50 in the assay with GnRH Bio-peptide 1 [2] of 16.9 nM.

B10: Clone 1 Ala scanning 3 (antibody, V domains shown)
VH: B1 VH with Y101A
As to B10, the EC50 with GnRH Bio-peptide 1 [2] was above 1000 nM.

B11: Clone 1 Variant 5 (antibody, V domains shown)
VH: B1 VH with D99R, A100T, N105A
B11 registered an EC50 in the assay with GnRH Bio-peptide 1 [5] of 0.94 nM.

B12: Clone 1 Ala scanning 2 (antibody, V domains shown)
VH: B1 VH with D99A
B12 displayed an EC50 in the assay with GnRH Bio-peptide 1 [2] of 19.8 nM.

B13: Clone 1 Variant 1 (antibody, V domains shown)
VH: B1 VH with Q109H
B13 came in with an EC50 with GnRH Bio-peptide 1 [5] of 0.39 nM.

B14: Clone 19 (pGnRH-019) (antibody, V domains shown)
VH: B1 VH with V18L, G53W, T57N
For the molecule B14, the EC50 with GnRH Bio-peptide 1 [1] was 415000 nM.

B15: 01Tm3 (antibody, V domains shown)
VH: B1 VH with Q1D, A14P, V18L, T23A, N31A
In the case of B15, the EC50 with GnRH Bio-peptide 2 [3] was 0.33 nM; with GnRH Bio-peptide 1 [6], 0.4 nM.

B16: 01Tm4 (antibody, V domains shown)
VH: B1 VH with Q1D, A14P, V18L, T23A, N30S
On to B16, for which the EC50 with GnRH Bio-peptide 2 [3] and with GnRH Bio-peptide 1 [6] was 0.32 nM throughout.

B17: Clone 1 Ala scanning 1 (antibody, V domains shown)
VH: B1 VH with D98A
In the case of B17, the EC50 with GnRH Bio-peptide 1 [2] worked out at 509 nM.

B18: Clone 1 Variant 3 (antibody, V domains shown)
VH: B1 VH with P103S, Q109H
B18 registered an EC50 with GnRH Bio-peptide 1 [5] of 1.19 nM.

B19: Clone 1 Ala scanning 8 (antibody, V domains shown)
VH: B1 VH with L106A
B19: the EC50 in the assay with GnRH Bio-peptide 1 [2] amounted to 4 nM.

B20: 01Tm1 (antibody, V domains shown)
VH: B1 VH with Q1D, A14P, V18L, T23A
Consider B20, for which the EC50 was found to be 0.33 nM with GnRH Bio-peptide 2 [3] and 0.34 nM with GnRH Bio-peptide 1 [6].

B21: 01Tm2 (antibody, V domains shown)
VH: B1 VH with Q1D, A14P, V18L, T23A, N30Q
B21: the EC50 with GnRH Bio-peptide 2 [3] and in the assay with GnRH Bio-peptide 1 [6] was 0.32 nM throughout.

B22: Clone 1 Ala scanning 11 (antibody, V domains shown)
VH: B1 VH with Q109A
With B22, in the assay with GnRH Bio-peptide 1 [2], a half-maximal response (EC50) required 11.9 nM.

B23: Clone 9 (pGnRH-009) (antibody, V domains shown)
VH: EVQLVESGGGLVQSGGSLGLSCAASGRTFSGYAMGWFRQAPGKEREFVAAIRWSGGSTSYADSVKGRFTISRDNAKNTVYLQMNSLKPEDTAVYYCAADRGPSGSYYYPDYWGQGTQVTVSS
Turning to B23, the values for the EC50 with GnRH Bio-peptide 2 [8], in the assay with GnRH Bio-peptide 1 [9] and in the assay with GnRH Bio-peptide 1 [10] were 0.36 nM, 8.16 nM and 14.4 nM, respectively.

B24: Clone 9 Ala scanning 9 (antibody, V domains shown)
VH: B23 VH with Y107A
For the molecule B24, the EC50 in the assay with GnRH Bio-peptide 1 [10] is 56.4 nM.

B25: Clone 9 Ala scanning 12 (antibody, V domains shown)
VH: B23 VH with D110A
In the assay with GnRH Bio-peptide 1 [10], B25 gave an EC50 of 365 nM.

B26: Clone 9 Ala scanning 5 (antibody, V domains shown)
VH: B23 VH with S103A
As for B26, the EC50 with GnRH Bio-peptide 1 [10] amounted to 49.5 nM.

B27: Clone 9 Ala scanning 4 (antibody, V domains shown)
VH: B23 VH with P102A
The molecule B27 gave an EC50 in the assay with GnRH Bio-peptide 1 [10] of 51.3 nM.

B28: Clone 9 Ala scanning 2 (antibody, V domains shown)
VH: B23 VH with R100A
As to B28, the EC50 with GnRH Bio-peptide 1 [10] came out at 29.9 nM.

B29: Clone 9 Ala scanning 7 (antibody, V domains shown)
VH: B23 VH with S105A
For B29, the EC50 with GnRH Bio-peptide 1 [10] came to 15.6 nM.

B30: 09Tm2 (antibody, V domains shown)
VH: B23 VH with E1D, S14P, G19R, W53F
Regarding B30, the EC50 with GnRH Bio-peptide 2 [8] came to 1.99 nM; with GnRH Bio-peptide 1 [9], 1.37 nM.

B31: 09Tm1 (antibody, V domains shown)
VH: B23 VH with E1D, S14P, G19R
In the case of B31, the EC50 is 1.91 nM with GnRH Bio-peptide 2 [8] and 0.99 nM with GnRH Bio-peptide 1 [9].

B32: Clone 9 Ala scanning 6 (antibody, V domains shown)
VH: B23 VH with G104A
For the molecule B32, the EC50 with GnRH Bio-peptide 1 [10] amounted to 524 nM.

B33: Clone 9 Ala scanning 10 (antibody, V domains shown)
VH: B23 VH with Y108A
Turning to B33, the EC50 with GnRH Bio-peptide 1 [10] was found to be 61.2 nM.

B34: Clone 9 Ala scanning 8 (antibody, V domains shown)
VH: B23 VH with Y106A
Regarding B34, the EC50 with GnRH Bio-peptide 1 [10] is 554 nM.

B35: Clone 9 Ala scanning 1 (antibody, V domains shown)
VH: B23 VH with D99A
In the case of B35, in the assay with GnRH Bio-peptide 1 [11], the binding result is “no binding”.

B36: Clone 9 Ala scanning 11 (antibody, V domains shown)
VH: B23 VH with P109A
Take B36: the EC50 with GnRH Bio-peptide 1 [10] came out at 375 nM.

B37: Clone 9 Ala scanning 3 (antibody, V domains shown)
VH: B23 VH with G101A
As for B37, in the assay with GnRH Bio-peptide 1 [10], a half-maximal effect (EC50) was put at 307 nM.
